T1: p75^FL on transfected HEK293 cells (UniProt P07174 30-425)
T1 construct: whole, on cells; also called p75^NTR
T1 sequence (looked up): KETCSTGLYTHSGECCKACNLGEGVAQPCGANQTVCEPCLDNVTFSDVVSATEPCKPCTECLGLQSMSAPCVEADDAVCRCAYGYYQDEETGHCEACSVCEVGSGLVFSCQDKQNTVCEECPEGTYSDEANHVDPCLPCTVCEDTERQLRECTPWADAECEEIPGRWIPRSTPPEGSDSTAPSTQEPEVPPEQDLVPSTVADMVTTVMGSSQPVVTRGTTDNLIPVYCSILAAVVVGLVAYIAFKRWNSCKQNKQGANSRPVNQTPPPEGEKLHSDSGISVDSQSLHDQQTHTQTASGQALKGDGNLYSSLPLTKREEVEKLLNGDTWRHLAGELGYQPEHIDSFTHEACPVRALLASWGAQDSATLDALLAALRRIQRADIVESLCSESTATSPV

T2: p75^Δ-JUX (UniProt P07174 30-425)
T2 construct: whole, on cells; In HEK293 lysate in the co-immunoprecipitation, on HEK293 cells in the NGF-FITC assays; also called p75^NTR with an intracellular juxtamembrane deletion
T2 sequence (looked up): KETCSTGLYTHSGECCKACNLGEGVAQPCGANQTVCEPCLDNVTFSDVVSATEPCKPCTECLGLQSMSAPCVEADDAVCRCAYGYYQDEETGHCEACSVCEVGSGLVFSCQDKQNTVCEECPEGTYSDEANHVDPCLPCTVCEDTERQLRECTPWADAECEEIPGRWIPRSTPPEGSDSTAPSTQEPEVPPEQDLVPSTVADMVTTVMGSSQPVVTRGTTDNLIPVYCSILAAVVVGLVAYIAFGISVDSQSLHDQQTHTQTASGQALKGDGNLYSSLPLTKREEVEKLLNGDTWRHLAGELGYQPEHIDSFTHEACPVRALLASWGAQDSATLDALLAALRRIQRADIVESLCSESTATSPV

B1: NGF-FITC (ligand, mouse, UniProt P01139 122-239, looked up)
chain: SSTHPVFHMGEFSVCDSVSVWVGDKTTATDIKGKEVTVLAEVNINNSVFRQYFFETKCRASNPVESGCRGIDSKHWNSYCTTTHTFVKALTTDEKQAAWRFIRIDTACVCVLSRKATR
modifications: conjugated to FITC
notes: also called fluorescently labelled NGF; FITC-NGF
B2: unlabelled NGF (ligand, mouse, UniProt P01139 122-239, looked up)
chain: B1 chain
notes: also called unlabeled NGF

Key:
TrkAK538A [1] = biological target: T3, TrkAK538A; assay: real-time flow cytometry, Hill-Slope association curve, TrkAK538A-expressing HEK293 cells pre-treated with c29
T3 construct: whole, on cells; On transfected HEK293 cells in flow cytometry; in HEK293 lysates in the co-immunoprecipitations; also called TrkK538A

[2] = biological target: T1, p75^FL on transfected HEK293 cells; assay: flow cytometry, 26 nM NGF-FITC 60 min on ice, transfected HEK293 cells
Method: (§1) To investigate NGF binding, PC12 or transfected HEK293 cells were serum starved for 4 hours, harvested, washed with Dulbecco's Modified Eagle Medium (DMEM), and counted. When used, c29 or scrambled peptide were added to cultures for the third hour of the serum starvation procedure.

TrkAK538A [3] = biological target: T3, TrkAK538A; assay: as above
Method: as §1

p75^Δ-JUX [4] = biological target: T2, p75^Δ-JUX; assay: as above
Method: as §1

[5] = biological target: T4, TrkAK538A and p75^Δ-JUX co-expressed on HEK293 cells (UniProt P07174 30-425); assay: flow cytometry competition against 26 nM NGF-FITC, co-transfected HEK293 cells
T4 construct: whole, on cells; Two receptors on the same cells; also called TrkAK538A + p75^ΔJUX
Method: as §1

[6] = biological target: T5, TrkAK538A and p75^FL co-expressed on HEK293 cells (UniProt P07174 30-425); assay: as above
T5 construct: whole, on cells; Two receptors on the same cells; also called TrkAK538A + p75^FL
Method: as §1

[7] = biological target: T1, p75^FL on transfected HEK293 cells; assay: flow cytometry competition against 26 nM NGF-FITC, transfected HEK293 cells
Method: as §1

TrkAK538A [8] = biological target: T3, TrkAK538A; assay: as above
Method: as §1

p75^Δ-JUX [9] = biological target: T2, p75^Δ-JUX; assay: as above
Method: as §1

Row | Binder | fold faster association rate against untreated TrkAK538A-expressing cells (TrkAK538A [1]) | % of cells with fluorescence intensity above background [2] | % of cells with fluorescence intensity above background (TrkAK538A [3]) | % of cells with fluorescence intensity above background (p75^Δ-JUX [4]) | excess of unlabelled NGF required for NGF-FITC binding to fall to background fluorescence [5] | excess of unlabelled NGF required for NGF-FITC binding to fall to background fluorescence [6] | excess of unlabelled NGF required for NGF-FITC binding to fall to background fluorescence [7] | excess of unlabelled NGF required for NGF-FITC binding to fall to background fluorescence (TrkAK538A [8]) | excess of unlabelled NGF required for NGF-FITC binding to fall to background fluorescence (p75^Δ-JUX [9])
1 | B1 | ~3 fold | 80% | 80% | 80% |  |  |  |  | 
2 | B2 |  |  |  |  | 1000 fold | 1000 fold | 1000 fold | 1000 fold | 1000 fold

Source: patent publication US20150344535A1 (UNIVERSITY OF QUEENSLAND, published 2015)
